Earlier results as cited in article PMC6273919.

Molecular target: NF-kappa-B p50 (Homo sapiens) (UniProt P19838)
UniProt P19838, sequence (P19838 1-433): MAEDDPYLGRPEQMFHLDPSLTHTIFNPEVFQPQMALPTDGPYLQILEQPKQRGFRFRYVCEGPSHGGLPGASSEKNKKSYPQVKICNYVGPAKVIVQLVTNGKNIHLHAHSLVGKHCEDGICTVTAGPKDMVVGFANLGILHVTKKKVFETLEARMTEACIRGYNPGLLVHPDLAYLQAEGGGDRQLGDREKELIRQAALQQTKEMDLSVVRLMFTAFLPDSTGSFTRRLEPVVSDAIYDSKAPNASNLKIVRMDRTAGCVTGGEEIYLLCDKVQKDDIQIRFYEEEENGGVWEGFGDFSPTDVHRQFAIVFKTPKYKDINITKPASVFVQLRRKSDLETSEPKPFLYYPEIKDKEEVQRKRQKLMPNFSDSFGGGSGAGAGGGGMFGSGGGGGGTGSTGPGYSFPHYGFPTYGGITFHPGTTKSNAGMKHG

Melittin (from UniProt P01501)
Kd: 12 nM
